Substrate in this data set: CCCCCCCCCC(=O)SCCNC(=O)CCNC(=O)[C@H](O)C(C)(C)COP(=O)(O)OP(=O)(O)OC[C@H]1O[C@@H](n2cnc3c(N)ncnc32)[C@H](O)[C@@H]1OP(=O)(O)O
Briefly: purified protein. The data set is classed as biochemical, Cryptosporidium parvum. Particulars: 0.1 M HEPES pH 7.4, 50 mM KCl, 50 μM DTNB, MBP-tag background subtracted, temperature not given.

B1: CpTEII (MBP-CpTEII) (Cryptosporidium parvum Iowa II) (protein)
chain: MSKSDFDKWFPSYSKVNSHLINLGSRNQPICRLLCIHGAGGSDQIFVKKDLNTGRESSNILLDYAQENGIELLVLQLPGRAGRSHEACYEDIATLINDFYPVFKSHFFGKANLTEYIELIPWVIVGHSMGGLIGFELLKRIKFEQLKDFSAKFGVTDQSGFENKIVKLLREKRIFPELFIIMSSFPPNIPEYDRPWRKNEELNDEEFKQECREWGINQNVFKKGIWEEFEKQLRCDFTMFDSFEMNLVDKIFYCSNQSLYNFMYPLGVDAQLWSASQDSKVTKDIMNKWKELLTSNGNSLDTREIDAQHNFLHDPKARKEWMQDLSTSLDKIILDLEYY
notes: entire ORF (339 aa, 39 kDa) from genomic DNA, N-terminal MBP tag kept (intact fusion assayed), C-terminal His-tag, pMAL-c2e-TEV, expressed in E. coli Rosetta 2
The term Km denotes the concentration of substrate that gives half-maximal velocity. One may read the kcat as the maximal rate divided by the concentration of active sites. As to B1, the Km worked out at 172.2 µM and the kcat was 0.0253 s⁻¹.

The record behind these values is publication PMC6568194, “Molecular and Biochemical Characterization of a Type II Thioesterase From the Zoonotic Protozoan Parasite Cryptosporidium parvum” (Frontiers in Cellular and Infection Microbiology, 2019).
